Among the data in paper PMC4222845 are Kd and stoichiometry N values, retold here.

A word on the Kd: it is a measure of binding affinity in units of concentration. A low value points to higher affinity. By stoichiometry N is commonly meant a count of units in the complex or per binding partner.

Assay [1] addresses Scc3 (C. pneumoniae AR39). Nature of the assay: ITC.
For assay [2], the target named is Scc3-CopNΔ84 complex (C. pneumoniae AR39). The experiment in a line: ITC.
Assay [3] concerns the target CopNΔ84 (C. pneumoniae AR39). Nature of the assay: SEC; Superdex 200 10/300 GL, 10 mM Tris-HCl pH 7.5, 150 mM NaCl, 0.5 mL/min, 4°C; equivalent molar concentrations, incubated 15 minutes; molecular weight from BioRad gel-filtration standards. (In gel filtration, larger molecules generally elute earlier.)

On to “synthetic peptide (CopB residues 163–173)”, for which the Kd came to 79 µM in assay [1] and 49 µM in assay [2].
For Scc3 (natural protein), the stoichiometry N in assay [3] turned out to be 1.
